In patent US20160347802A1 (MAX PLANCK GESELLSCHAFT ZUR FOERDERUNG DER WISSENSCHAFTEN E …, published 2016):

T1: human Netrin-4, AVEXIS protein (human, UniProt Q9HB63 19-628)
T1 construct: not shown: AVEXIS tag (bait or prey)
T1 sequence (looked up): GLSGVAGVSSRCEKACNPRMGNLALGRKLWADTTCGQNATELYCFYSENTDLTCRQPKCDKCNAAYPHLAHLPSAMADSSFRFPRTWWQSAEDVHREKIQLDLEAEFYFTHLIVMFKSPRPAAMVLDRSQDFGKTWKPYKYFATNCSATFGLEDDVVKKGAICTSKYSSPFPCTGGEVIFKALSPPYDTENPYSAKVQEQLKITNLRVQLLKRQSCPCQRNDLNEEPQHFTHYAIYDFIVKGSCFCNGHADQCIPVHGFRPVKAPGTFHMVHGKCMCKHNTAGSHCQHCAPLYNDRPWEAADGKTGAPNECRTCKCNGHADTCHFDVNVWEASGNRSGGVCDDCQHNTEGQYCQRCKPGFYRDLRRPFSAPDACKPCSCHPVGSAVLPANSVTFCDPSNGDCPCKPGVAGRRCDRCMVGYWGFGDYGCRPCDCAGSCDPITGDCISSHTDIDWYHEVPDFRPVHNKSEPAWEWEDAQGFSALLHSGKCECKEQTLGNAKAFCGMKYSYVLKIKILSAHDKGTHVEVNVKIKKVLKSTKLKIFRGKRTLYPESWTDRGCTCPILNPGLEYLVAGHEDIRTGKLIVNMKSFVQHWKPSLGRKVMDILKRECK

T2: human Netrin-G1, AVEXIS protein (human, UniProt Q9Y2I2 29-510)
T2 construct: not shown: AVEXIS tag (bait or prey)
T2 sequence (looked up): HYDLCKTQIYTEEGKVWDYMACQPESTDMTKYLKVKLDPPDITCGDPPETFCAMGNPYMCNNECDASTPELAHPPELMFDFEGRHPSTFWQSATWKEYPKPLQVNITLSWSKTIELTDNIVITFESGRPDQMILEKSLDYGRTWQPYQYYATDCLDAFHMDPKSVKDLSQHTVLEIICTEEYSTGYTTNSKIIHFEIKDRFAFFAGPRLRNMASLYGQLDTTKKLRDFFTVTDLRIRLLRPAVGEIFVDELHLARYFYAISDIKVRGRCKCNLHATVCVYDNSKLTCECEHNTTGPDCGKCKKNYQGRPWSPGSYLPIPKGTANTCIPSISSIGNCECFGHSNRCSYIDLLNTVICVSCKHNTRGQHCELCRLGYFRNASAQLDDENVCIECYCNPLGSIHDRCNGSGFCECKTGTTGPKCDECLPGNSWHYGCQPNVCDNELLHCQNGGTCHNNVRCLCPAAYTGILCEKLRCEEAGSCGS

T3: human Netrin-G2, AVEXIS protein (human, UniProt Q96CW9 18-507)
T3 construct: not shown: AVEXIS tag (bait or prey)
T3 sequence (looked up): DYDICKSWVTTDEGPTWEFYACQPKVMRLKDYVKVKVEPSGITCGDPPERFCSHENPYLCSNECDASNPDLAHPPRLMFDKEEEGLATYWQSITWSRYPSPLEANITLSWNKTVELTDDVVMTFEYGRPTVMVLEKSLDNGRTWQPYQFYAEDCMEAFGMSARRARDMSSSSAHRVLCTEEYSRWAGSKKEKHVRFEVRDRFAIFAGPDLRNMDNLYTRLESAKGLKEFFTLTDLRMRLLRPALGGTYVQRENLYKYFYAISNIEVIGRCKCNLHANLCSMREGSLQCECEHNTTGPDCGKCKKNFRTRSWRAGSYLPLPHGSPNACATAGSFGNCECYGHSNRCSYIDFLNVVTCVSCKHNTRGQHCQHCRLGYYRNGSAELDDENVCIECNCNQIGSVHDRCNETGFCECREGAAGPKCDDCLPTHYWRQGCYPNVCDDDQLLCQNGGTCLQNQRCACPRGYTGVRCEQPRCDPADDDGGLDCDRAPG

T4: human DRAXIN, AVEXIS prey or bait protein (human, UniProt Q8NBI3 26-349)
T4 sequence: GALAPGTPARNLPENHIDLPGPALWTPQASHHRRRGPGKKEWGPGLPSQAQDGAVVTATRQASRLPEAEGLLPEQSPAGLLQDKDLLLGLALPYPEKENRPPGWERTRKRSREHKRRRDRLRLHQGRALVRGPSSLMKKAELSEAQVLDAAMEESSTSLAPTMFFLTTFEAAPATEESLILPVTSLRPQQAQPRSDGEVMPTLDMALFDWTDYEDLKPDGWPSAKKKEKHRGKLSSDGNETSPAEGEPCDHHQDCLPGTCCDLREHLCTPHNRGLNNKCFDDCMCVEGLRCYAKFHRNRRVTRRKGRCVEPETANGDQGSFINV


Experiments:
[1] = biological target: T5, biotinylated recombinant human UNC5B (human, UniProt Q8IZJ1 27-377); assay: SPR, UNC5B immobilised, Draxin injected at 0 to 18.75nM
T5 construct: Made in HEK293-6E and immobilised on an SA chip
Experimental: (§2) Surface Plasmon Resonance (SPR) experiments were performed on a Biacore 3000 (GE Healthcare) at 25° C. using a SA sensor chip in 0.01 M HEPES, pH 7.4, 0.15 M NaCl, 0.005% Surfactant P20 (HBS-P) running buffer at a flow rate of 30 μl/min. The instrument was used according to manufacturer's instructions.

[2] = biological target: T6, human Netrin1, recombinant AVEXIS protein (biotinylated when immobilised) (human, UniProt O95631 25-604); assay: SPR, Biacore 3000, biotinylated human Netrin1 on SA chip, Draxin injected at 0-18.8 nM
T6 construct: also called NTN1
Experimental: as §2

[3] = biological target: T1, human Netrin-4, AVEXIS protein; assay: AVEXIS, prey NTN4 on bait DRAXIN 21aa
From the text: (§1) The Matn4-bait served as an internal prey-protein control and was used for normalization of the A486 nm values; conditioned medium (CM) serves as negative control; n=3.

[4] = biological target: T5, biotinylated recombinant human UNC5B; assay: AVEXIS, prey DRAXIN 21aa on bait UNC5B
From the text: as §1

[5] = biological target: T2, human Netrin-G1, AVEXIS protein; assay: AVEXIS, prey NTNG1 on bait DRAXIN 21aa
From the text: as §1

[6] = biological target: T3, human Netrin-G2, AVEXIS protein; assay: AVEXIS, prey NTNG2 on bait DRAXIN 21aa
From the text: as §1

[7] = biological target: T4, human DRAXIN, AVEXIS prey or bait …; assay: AVEXIS, prey DRAXIN on bait DRAXIN 21aa
From the text: as §1

[8] = biological target: T6, human Netrin1, recombinant AVEXIS …; assay: AVEXIS, prey on bait NTN1; dark = Binding
From the text: as §1

[9] = biological target: the molecule itself; assay: AVEXIS, prey DRAXIN 21aa on bait DRAXIN 21aa
From the text: as §1

[10] = biological target: T1, human Netrin-4, AVEXIS protein; assay: AVEXIS, prey on bait NTN4; white = No binding
From the text: as §1

[11] = biological target: T2, human Netrin-G1, AVEXIS protein; assay: AVEXIS, prey on bait NTNG1; white = No binding
From the text: as §1

[12] = biological target: T3, human Netrin-G2, AVEXIS protein; assay: AVEXIS, prey on bait NTNG2; white = No binding
From the text: as §1

[13] = biological target: T5, biotinylated recombinant human UNC5B; assay: AVEXIS, prey on bait UNC5B; white = No binding
From the text: as §1

[14] = biological target: T4, human DRAXIN, AVEXIS prey or bait …; assay: AVEXIS, prey on bait DRAXIN; white = No binding
From the text: as §1

[15] = biological target: the molecule itself; assay: AVEXIS, prey on bait DRAXIN 21aa; white = No binding
From the text: as §1

[16] = biological target: T7, Matn4 ECD, mono-biotinylated bait protein (positive control); assay: AVEXIS, prey on bait Matn4 (+), positive control for the prey; dark = Binding
T7 construct: extracellular domain; also called Matn4-bait
From the text: as §1

Binder | binding result [1] | Kd [2] | binding result [3] | binding result [4] | binding result [5] | binding result [6] | binding result [7] | A486nm [8] | binding result [9] | A486nm [10] | A486nm [11] | A486nm [12] | A486nm [13] | A486nm [14] | A486nm [15] | A486nm [16]
recombinant human Draxin (R&D systems) (ligand, Bought protein) GALAPGTPARNLPENHIDLPGPALWTPQASHHRRRGPGKKEWGPGLPSQAQDGAVVTATRQASRLPEAEGLLPEQSPAGLLQDKDLLLGLALPYPEKENRPPGWERTRKRSREHKRRRDRLRLHQGRALVRGPSSLMKKAELSEAQVLDAAMEESSTSLAPTMFFLTTFEAAPATEESLILPVTSLRPQQAQPRSDGEVMPTLDMALFDWTDYEDLKPDGWPSAKKKEKHRGKLSSDGNETSPAEGEPCDHHQDCLPGTCCDLREHLCTPHNRGLNNKCFDDCMCVEGLRCYAKFHRNRRVTRRKGRCVEPETANGDQGSFINV | no binding (tested: 18.75 nM) | 20 to 100 nM | – | – | – | – | – | – | – | – | – | – | – | – | – | –
EVMPTLDMALFDWTDYEDLKP (Tested in both bait and prey orientations; also called human 21 amino acid DRAXIN fragment; derived 21 amino acid peptide; not shown: AVEXIS tag (rat Cd4d3+4 and prey or bait module)) [human DRAXIN 21 amino acid Netrin binding fragment, AVEXIS prey or bait protein] | – | – | no binding | no binding | no binding | no binding | no binding | 0.342 | no binding | 0.063 | 0.066 | 0.062 | 0.062 | 0.063 | 0.059 | 0.252
